B1: HBV#8 Fab (Fab, V domains shown)
VH: EVQLLESGPGLVKPSQTLSLTCAVSGAFMTSDYLYWSWLRQPPGKGPEWIGGIYTTGRSHYNPSLRGRATLSVDTSKNQFSLELNSVTAADTAVYYCARGQYHNWGPSLFDYYNYYYMDVWGKGTTVTVSS
VL: AAELTQSPSSLSASVGDRVTITCRASQDISNYLAWYQQKPGKAPKLLIYSASRLQSGVPSRFSGSGSGTDYTLTLSSLHPEDSATYYCHQYHSAPWTFGQGTKVEIKR
B2: HBV#8 IgG (antibody, V domains shown)
VH: B1 VH
VL: B1 VL

Assays:
[1] = molecular target: hepatitis B surface antigen (HBsAg), purified from human plasma (hepatitis B virus); test: competition inhibition ELISA: free HBsAg against HBsAg-coated wells; I50 of antigen multiplied by 100
[2] = molecular target: hepatitis B surface antigen (HBsAg), purified from human plasma (hepatitis B virus); test: indirect competition ELISA on HBsAg-coated wells; highest attainable concentration of unlabeled Fab; competitor: HBV#8 IgG
[3] = molecular target: hepatitis B surface antigen (HBsAg), purified from human plasma (hepatitis B virus); test: indirect competition ELISA on HBsAg-coated wells; highest attainable concentration of unlabeled Fab; competitor: biotinylated HBV#8 Fab
[4] = molecular target: hepatitis B surface antigen (HBsAg), purified from human plasma (hepatitis B virus); test: competition inhibition ELISA; Kd of the IgG against Kd of the Fab

Chain of hepatitis B surface antigen (HBsAg), purified from human plasma (hepatitis B virus) (P03141 175-400): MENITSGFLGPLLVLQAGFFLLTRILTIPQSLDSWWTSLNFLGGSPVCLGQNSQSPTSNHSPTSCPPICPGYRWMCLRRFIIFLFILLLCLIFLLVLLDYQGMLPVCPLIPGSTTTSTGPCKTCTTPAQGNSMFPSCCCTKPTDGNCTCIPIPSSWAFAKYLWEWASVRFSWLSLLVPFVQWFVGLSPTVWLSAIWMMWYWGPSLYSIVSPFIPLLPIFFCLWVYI

Binder | Kd [1] | percent inhibition of binding [2] | percent inhibition of binding [3] | fold improvement of affinity (IgG against Fab) [4]
B1 | 1900 nM | 57% | 66% | 
B2 | 25 nM |  |  | 75 fold

Source: patent US20110097270A1
